Assay results: patent US20240024520A1 (UCB, published 2024)
Several values for one entry are separate records, joined by “and”; a condition that tells them apart may be missing. Equal entries are not always repeated. Where two headings read alike, the source gives them in different places.

Assays:
[1] = target: T1, human complement component C5 (human, UniProt P01031 19-673; P01031 678-1676)
[2] = target: T1, human complement component C5; test: cell-based or functional assay
[3] = target: T1, human complement component C5; test: cell-based or functional assay; remark: listed apart in the source
[4] = target: T1, human complement component C5; remark: listed apart in the source
[5] = target: T1, human complement component C5; test: cell-based or functional assay; remark: listed apart in the source
[6] = target: T1, human complement component C5; test: cell-based or functional assay; remark: listed apart in the source
[7] = target: T1, human complement component C5; test: cell-based or functional assay; remark: listed apart in the source
[8] = target: T2, human complement component C3 (human, UniProt P01024 23-667; P01024 672-1663); test: counter screen
T2 construct: also called biotinylated C3
T2 sequence (P01024 23-667 limits assumed, chain 1 of 2): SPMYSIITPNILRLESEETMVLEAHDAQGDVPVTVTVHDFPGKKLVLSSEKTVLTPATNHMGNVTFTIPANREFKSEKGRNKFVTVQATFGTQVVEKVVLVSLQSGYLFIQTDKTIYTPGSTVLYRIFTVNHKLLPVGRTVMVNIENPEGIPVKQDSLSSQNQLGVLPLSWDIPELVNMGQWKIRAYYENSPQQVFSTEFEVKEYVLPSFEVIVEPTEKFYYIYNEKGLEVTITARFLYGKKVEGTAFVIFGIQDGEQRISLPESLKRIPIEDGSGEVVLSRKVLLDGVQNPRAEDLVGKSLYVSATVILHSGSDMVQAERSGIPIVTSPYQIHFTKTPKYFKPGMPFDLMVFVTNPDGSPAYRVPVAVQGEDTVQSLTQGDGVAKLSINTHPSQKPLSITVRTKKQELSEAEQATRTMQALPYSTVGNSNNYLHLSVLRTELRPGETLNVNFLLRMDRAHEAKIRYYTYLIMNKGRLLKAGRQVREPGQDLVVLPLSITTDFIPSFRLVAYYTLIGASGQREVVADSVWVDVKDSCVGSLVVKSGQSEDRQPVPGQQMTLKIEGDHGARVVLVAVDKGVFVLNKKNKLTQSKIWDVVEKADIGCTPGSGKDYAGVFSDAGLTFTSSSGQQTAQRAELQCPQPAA
T2 sequence (P01024 672-1663 limits assumed, chain 2 of 2): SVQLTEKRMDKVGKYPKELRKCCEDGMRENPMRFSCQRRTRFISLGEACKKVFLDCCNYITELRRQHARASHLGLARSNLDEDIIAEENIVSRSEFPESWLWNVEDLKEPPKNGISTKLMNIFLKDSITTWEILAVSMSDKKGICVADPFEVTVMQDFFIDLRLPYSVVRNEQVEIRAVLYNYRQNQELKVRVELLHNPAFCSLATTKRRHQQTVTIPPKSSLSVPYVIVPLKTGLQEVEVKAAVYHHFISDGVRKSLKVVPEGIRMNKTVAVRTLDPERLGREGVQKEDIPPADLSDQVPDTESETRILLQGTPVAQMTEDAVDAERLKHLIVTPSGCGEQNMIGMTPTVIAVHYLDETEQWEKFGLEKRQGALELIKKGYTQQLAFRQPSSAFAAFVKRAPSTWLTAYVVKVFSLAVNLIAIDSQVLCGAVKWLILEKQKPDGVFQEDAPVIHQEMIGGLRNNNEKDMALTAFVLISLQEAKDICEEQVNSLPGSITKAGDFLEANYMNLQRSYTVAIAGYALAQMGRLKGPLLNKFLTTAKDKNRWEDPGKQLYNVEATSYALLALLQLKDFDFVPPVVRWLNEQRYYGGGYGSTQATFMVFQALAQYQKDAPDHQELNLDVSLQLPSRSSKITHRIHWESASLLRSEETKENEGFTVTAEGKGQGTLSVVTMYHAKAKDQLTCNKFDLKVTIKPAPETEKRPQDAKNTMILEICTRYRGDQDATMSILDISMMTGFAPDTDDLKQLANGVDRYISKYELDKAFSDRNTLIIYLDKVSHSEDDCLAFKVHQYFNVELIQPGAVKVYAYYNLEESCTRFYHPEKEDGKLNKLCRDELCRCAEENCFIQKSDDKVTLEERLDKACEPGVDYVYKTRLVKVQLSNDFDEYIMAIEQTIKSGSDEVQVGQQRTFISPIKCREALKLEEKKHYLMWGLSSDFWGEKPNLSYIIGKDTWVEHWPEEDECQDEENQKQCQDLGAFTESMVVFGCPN

ovalbumin = target: T3, ovalbumin (UniProt P01012 2-386); test: counter screen
T3 sequence (looked up): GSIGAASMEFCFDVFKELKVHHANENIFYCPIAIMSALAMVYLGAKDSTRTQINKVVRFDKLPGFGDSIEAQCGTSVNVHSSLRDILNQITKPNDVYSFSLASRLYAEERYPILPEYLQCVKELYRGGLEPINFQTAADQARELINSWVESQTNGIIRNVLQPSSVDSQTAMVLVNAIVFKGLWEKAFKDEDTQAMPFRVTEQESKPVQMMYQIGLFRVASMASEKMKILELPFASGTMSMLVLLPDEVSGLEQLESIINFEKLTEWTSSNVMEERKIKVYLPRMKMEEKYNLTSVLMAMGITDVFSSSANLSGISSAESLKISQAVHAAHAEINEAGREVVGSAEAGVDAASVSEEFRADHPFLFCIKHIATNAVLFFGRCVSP

mouse C5 = target: T4, mouse C5 (mouse, UniProt P06684 19-674; P06684 679-1680); test: SPR single-cycle kinetics
T4 construct: mature; also called mouse C5 protein
T4 sequence (P06684 19-674 limits assumed, chain 1 of 2): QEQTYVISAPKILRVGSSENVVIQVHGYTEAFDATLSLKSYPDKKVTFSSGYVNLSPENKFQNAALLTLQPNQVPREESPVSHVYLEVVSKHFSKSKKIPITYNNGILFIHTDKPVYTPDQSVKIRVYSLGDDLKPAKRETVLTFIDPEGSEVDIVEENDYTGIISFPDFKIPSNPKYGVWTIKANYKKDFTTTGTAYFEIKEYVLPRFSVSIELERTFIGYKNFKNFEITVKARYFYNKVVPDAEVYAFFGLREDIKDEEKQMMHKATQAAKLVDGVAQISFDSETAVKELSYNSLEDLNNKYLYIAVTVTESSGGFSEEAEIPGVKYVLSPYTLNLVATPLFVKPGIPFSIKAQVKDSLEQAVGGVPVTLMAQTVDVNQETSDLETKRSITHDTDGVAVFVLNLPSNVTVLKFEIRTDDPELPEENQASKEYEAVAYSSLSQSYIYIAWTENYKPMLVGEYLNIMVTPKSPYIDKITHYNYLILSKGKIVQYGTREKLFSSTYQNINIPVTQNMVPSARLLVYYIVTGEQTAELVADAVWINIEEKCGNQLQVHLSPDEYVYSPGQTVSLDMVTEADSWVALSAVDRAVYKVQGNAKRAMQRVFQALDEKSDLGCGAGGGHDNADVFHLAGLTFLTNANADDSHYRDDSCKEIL
T4 sequence (P06684 679-1680 limits assumed, chain 2 of 2): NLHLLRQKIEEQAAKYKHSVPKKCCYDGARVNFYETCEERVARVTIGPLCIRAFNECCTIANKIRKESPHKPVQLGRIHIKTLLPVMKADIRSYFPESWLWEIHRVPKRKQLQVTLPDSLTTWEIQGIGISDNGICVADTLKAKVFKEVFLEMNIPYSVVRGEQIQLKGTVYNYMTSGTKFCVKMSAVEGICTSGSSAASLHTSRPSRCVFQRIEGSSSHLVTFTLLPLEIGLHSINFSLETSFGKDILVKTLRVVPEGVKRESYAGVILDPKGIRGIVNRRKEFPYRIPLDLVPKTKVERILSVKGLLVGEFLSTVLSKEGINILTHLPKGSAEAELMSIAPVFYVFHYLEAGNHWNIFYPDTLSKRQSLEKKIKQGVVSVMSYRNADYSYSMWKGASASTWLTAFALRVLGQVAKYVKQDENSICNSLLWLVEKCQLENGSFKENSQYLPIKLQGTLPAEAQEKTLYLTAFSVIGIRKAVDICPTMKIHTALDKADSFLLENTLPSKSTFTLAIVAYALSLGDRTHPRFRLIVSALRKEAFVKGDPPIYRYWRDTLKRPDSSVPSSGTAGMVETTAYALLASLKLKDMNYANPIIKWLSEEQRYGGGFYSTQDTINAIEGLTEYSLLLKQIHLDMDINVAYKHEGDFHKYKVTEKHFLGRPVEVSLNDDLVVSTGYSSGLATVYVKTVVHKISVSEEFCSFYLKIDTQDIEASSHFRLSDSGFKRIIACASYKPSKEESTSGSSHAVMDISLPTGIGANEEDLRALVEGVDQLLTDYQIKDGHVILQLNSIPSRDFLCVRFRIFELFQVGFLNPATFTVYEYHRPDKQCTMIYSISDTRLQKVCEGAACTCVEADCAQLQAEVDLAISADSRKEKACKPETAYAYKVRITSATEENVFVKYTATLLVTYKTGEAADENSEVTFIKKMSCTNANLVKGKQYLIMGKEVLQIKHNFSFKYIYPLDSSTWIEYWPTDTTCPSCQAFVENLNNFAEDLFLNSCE

[9] = target: T1, human complement component C5; test: SPR single-cycle kinetics
[10] = target: T1, human complement component C5; test: cell-based or functional assay; remark: listed apart in the source
[11] = target: T1, human complement component C5; test: SPR multi-cycle kinetics, human C5 immobilised, mean of n=3
[12] = target: T1, human complement component C5; test: cell-based or functional assay; remark: listed apart in the source
[13] = target: T1, human complement component C5; test: cell-based or functional assay; remark: listed apart in the source
rat C5 = target: T5, rat C5 (Rattus norvegicus (rat), UniProt P08650 19-1681, limits assumed); test: SPR multi-cycle kinetics, rat C5 immobilised
T5 construct: also called C5 protein from Rattus norvegicus (rat)

[14] = target: T2, human complement component C3; test: cell-based or functional assay
[15] = target: T2, human complement component C3; test: cell-based or functional assay; remark: listed apart in the source
[16] = target: T2, human complement component C3; test: SPR (Biacore), C3, mean of n=3
[17] = target: T1, human complement component C5; test: SPR (Biacore), C5

T1 sequence (P01031 19-673 limits assumed, chain 1 of 2): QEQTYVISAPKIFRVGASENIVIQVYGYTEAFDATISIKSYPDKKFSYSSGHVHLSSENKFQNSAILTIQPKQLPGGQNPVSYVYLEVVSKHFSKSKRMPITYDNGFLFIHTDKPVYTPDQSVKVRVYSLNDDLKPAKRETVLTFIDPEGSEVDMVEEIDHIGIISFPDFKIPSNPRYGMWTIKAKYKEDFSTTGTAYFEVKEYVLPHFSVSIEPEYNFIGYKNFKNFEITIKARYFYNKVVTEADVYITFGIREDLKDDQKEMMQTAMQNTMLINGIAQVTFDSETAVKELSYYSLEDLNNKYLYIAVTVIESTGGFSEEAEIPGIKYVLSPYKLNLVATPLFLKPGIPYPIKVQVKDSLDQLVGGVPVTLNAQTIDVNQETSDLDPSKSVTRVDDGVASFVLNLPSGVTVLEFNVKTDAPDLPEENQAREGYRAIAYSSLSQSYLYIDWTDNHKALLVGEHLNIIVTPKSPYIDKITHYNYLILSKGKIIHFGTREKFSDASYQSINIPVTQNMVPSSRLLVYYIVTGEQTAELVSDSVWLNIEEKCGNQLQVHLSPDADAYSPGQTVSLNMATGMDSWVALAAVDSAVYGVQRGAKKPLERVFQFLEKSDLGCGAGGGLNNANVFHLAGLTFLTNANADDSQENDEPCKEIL
T1 sequence (P01031 678-1676 limits assumed, chain 2 of 2): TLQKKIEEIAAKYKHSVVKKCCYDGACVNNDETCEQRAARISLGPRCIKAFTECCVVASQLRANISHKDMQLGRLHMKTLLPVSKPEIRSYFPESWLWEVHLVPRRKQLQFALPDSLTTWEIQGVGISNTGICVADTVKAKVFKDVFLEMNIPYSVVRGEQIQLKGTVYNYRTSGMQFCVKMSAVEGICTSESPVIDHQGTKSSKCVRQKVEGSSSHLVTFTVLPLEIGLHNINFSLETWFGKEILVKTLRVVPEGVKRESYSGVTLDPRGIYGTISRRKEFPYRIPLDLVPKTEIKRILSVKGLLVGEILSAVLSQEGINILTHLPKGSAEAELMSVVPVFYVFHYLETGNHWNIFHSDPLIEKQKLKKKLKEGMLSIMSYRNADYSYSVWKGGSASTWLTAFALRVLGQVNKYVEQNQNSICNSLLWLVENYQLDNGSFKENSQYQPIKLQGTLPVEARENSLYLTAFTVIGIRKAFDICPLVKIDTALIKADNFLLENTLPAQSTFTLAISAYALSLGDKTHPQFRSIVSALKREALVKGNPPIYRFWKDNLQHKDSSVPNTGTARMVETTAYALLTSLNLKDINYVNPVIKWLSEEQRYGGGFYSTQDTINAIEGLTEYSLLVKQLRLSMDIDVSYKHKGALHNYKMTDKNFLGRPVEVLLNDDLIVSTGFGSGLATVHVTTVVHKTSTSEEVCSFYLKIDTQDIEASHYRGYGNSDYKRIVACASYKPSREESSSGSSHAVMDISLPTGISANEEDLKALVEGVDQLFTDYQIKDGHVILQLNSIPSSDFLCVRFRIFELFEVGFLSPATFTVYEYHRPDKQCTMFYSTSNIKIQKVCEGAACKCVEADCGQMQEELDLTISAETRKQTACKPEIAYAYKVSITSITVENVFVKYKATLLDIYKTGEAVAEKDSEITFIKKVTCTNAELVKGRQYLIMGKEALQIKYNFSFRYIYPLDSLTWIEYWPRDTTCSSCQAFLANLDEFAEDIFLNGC

For GSSGCPPGYKSGVDCSPGSECKWGCYAVDGRRYGGYGADSGVENLYFQ (Recombinant, cut out by TEV protease) [K57 knob domain peptide cleaved from the 645 Fab], the IC50 [1] was 0.004 µM and 0.0032 µM and 0.0035 µM and 0.0036 µM, the Ki [1] was 0.0018 µM and the “Inhibition of alternative pathway mediated C5a release, average Emax” value [2] was 97.8%. For the same binder, the “Inhibition of alternative pathway mediated C5a release, geomean IC50” value [2] was 0.0266 µM, the “Inhibition of classical pathway mediated bacterial lysis, geomean IC50” value [3] was 0.115 µM and the Kd [4] was 0.0014 µM. For the same binder, the koff [4] was 0.000408 s⁻¹, the kon [4] was 298000 M⁻¹ s⁻¹ and the “Inhibition of alternative pathway mediated bacterial lysis, average Emax” value [5] was 122%. For the same binder, the “Inhibition of alternative pathway mediated bacterial lysis, geomean IC50” value [5] was 1.02 µM, the “Inhibition of classical pathway mediated C5a release, geomean IC50” value [6] was 0.004 µM and the “AP mediated bacterial killing assay, IC50” value [7] was 1.22 µM. GSSGCPPGYKSGVDCSPGSECKWGCYAVDGRRYGGYGADSGVENLYFQ (Recombinant, cut out by TEV protease) [K57 knob domain peptide cleaved from the 645 Fab]: no binding [8]; no binding (ovalbumin); no binding (mouse C5). The Kd [9] was < 0.04 µM.

With GCPPGYKSGVDCSPGSECKWGCYAVDGRRYGGYGADSGVGS [K57chemFE knob domain peptide] the “alternative pathway complement ELISA (C5b deposition); IC50 (read off the curve)” value [10] was ~0.09 µM, the Kd [11] was 0.00228 µM and the koff [11] was 0.000579 s⁻¹. For the same binder, the kon [11] was 260000 M⁻¹ s⁻¹, the “classical pathway haemolysis assay; IC50 (read off the curve)” value [12] was ~0.02 µM and the “classical pathway complement ELISA (C5b deposition); IC50 (read off the curve)” value [13] was ~0.02 µM. GCPPGYKSGVDCSPGSECKWGCYAVDGRRYGGYGADSGVGS [K57chemFE knob domain peptide]: no binding (rat C5).

B1: hC3nb1 VHH with C-terminal single-chain Fc tag (VHH, not shown: a dimerising Fc or GST)
VHH: QVQLVETGGGLVQAGGSLRLSCAASGSIFSLNAMGWFRQAPGKEREFVATINRSGGRTYYADSVKGRFTISRDNGKNMVYLQMHSLKPEDTAIYYCAAGTGWSPQTDNEYNYWGQGTQVTVSS
notes: also called hC3Nb1 WT
With B1 the “alternative pathway C5b neoepitope ELISA; IC50 (read off the curve)” value [14] was ~0.1 µM, the “classical pathway C5b neoepitope ELISA; IC50 (read off the curve)” value [15] was ~0.01 µM and the Kd [16] was 0.000163 µM. B1: no binding [17].
